Assay results from patent EP3583122A1 (dated 2019).

Columns and labels:
Assay in all cases: cell-based or functional assay
[1] = target: T1, RESTV GP on rVSV particles (Reston virus (RESTV), UniProt Q66799 34-677)
T1 sequence: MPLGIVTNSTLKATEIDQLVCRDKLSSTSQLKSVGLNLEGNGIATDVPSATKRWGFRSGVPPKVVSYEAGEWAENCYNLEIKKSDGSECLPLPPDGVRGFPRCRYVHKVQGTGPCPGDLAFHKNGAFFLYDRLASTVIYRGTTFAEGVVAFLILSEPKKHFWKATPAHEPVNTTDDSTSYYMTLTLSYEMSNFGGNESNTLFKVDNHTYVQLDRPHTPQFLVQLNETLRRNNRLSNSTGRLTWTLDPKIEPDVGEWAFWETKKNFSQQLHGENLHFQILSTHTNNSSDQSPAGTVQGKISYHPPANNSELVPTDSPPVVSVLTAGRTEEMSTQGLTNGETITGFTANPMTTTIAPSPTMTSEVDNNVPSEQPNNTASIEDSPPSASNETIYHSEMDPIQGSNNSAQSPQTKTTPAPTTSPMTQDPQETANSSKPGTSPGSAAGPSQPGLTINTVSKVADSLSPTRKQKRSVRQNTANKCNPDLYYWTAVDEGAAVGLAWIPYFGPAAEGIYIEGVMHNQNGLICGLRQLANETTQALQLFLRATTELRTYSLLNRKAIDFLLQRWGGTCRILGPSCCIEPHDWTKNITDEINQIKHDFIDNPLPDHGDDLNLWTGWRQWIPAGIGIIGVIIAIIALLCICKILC

[2] = target: T2, TAFV GP on VSV pseudotype particles (Tai Forest virus (TAFV), UniProt Q66810 33-676)
T2 sequence: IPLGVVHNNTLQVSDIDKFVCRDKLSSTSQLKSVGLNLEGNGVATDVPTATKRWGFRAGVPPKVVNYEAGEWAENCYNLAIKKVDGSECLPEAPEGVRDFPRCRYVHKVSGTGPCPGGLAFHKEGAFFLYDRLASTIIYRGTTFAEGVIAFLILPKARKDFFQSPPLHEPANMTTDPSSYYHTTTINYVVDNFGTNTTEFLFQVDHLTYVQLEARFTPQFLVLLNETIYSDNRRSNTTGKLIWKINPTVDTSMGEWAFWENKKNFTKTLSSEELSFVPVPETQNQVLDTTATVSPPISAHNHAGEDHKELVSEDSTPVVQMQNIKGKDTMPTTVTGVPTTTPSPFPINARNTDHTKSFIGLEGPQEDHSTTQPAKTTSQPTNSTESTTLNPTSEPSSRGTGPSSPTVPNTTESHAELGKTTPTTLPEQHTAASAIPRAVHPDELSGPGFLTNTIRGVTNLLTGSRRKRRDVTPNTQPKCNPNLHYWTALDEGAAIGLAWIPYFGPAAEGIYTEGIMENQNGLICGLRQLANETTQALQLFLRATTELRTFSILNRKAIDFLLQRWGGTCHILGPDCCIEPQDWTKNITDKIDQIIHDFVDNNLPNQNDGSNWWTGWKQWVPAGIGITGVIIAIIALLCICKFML

[3] = target: T3, SUDV GP on rVSV particles (Sudan virus (SUDV), UniProt Q66814 33-676)
T3 sequence: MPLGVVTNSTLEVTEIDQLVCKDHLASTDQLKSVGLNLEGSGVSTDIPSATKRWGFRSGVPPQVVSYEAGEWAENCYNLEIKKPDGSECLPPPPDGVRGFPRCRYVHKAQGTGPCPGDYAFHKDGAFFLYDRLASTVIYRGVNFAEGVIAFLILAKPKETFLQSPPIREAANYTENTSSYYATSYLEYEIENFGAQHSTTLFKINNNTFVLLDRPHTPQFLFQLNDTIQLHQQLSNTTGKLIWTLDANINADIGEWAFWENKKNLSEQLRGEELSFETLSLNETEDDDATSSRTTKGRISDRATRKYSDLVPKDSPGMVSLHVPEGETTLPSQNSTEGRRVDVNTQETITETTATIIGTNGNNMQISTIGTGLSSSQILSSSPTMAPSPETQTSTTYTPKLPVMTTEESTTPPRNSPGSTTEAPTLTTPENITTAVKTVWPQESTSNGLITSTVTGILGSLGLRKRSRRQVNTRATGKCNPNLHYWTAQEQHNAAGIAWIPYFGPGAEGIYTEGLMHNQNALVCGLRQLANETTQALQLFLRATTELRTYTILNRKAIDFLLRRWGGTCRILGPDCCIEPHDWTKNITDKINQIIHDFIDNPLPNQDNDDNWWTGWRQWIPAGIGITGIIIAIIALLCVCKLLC

[4] = target: T4, EBOV GP on rVSV particles (Ebola virus (EBOV), UniProt Q05320 33-676)
T4 sequence: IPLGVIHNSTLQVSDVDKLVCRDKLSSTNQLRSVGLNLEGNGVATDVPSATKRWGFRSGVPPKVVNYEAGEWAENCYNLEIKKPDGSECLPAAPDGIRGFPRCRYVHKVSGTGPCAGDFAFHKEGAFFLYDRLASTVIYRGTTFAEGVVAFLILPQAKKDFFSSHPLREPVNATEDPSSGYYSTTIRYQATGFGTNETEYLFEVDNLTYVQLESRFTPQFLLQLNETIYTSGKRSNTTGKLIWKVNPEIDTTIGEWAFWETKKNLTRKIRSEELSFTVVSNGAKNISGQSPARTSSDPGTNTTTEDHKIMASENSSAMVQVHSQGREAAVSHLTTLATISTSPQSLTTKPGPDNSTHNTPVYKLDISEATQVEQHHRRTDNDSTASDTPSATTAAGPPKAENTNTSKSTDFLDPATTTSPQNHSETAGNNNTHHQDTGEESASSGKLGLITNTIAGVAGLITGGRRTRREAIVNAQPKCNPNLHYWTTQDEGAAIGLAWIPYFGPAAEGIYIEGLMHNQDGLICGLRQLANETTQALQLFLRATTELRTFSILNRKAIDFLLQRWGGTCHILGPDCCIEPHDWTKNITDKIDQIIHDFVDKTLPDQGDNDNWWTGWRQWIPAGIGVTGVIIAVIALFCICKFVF

[5] = target: BDBV GP on rVSV particles (Bundibugyo virus (BDBV))

B1: mAb PE-87 (antibody, V domains shown)
VH: QVQLVQSGVTLVQPGGSLRVSCAASGFTFSSYAMSWVRQAPGKGLEWVSAISGLGGSTYYADSVKGRFTISRDNSKNTLYLQMNSLRAEDTAVYYCAKDHRVWAAGYHFDYWGQGALVTVSS
VL: DIVLTQSPSTLSASVGDRVTITCRASQSISSWLAWYQQKPGEAPKLLISDASSLESGVPSRFSGSGSGTEFTLTISSLQPDDFATYYCQQYYSSPTFGGGTKVEIK
- IC50, half-maximal neutralization of viral infectivity (rVSV-GP) [1]: 0.1 nM
- IC50, half-maximal neutralization of viral infectivity (rVSV-GP) [2]: 0.9 nM
- IC50, half-maximal neutralization of viral infectivity (rVSV-GP) [3]: 0.8 nM
- IC50, half-maximal neutralization of viral infectivity (rVSV-GP) [4]: 1 nM
- IC50, half-maximal neutralization of viral infectivity (rVSV-GP) [5]: 0.4 nM
